The results in this text go back to publication PMC7484405.

A word on the Kd: it is the constant that tells how readily two partners part at equilibrium. Read a high Kd as a looser complex.

For series [1], the target named is T1, M2-1 WT (Human respiratory syncytial virus …, UniProt P04545 1-194).
T1 sequence: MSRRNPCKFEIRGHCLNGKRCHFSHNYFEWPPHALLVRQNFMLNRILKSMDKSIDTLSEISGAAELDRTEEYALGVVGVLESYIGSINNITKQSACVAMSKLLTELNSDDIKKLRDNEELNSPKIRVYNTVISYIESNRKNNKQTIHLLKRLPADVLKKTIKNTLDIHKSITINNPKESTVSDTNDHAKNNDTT
The series is described as follows: X-ray crystallography.

Series [2] addresses T1, M2-1 WT. The series is described as follows: MST.

B1: SH7 (ssRNA)
RNA: AGUUAAU
B1: in series [1], the binding result is recorded as “binds”.

B2: SH 13-nt positive-sense gene-end RNA (ssRNA)
RNA: AGUUAAUUAAAAA
B2 returned a Kd in series [2] of 870 nM.
